In patent publication US20210196823A1, “Methods of Treating Metabolic Disease” (Pfizer Inc., priority 2018, published 2021):

What was measured:
[1] = tested on: biotinylated monoFC-muErfe; experiment: FRET assay: BMPs disrupting binding of cryptate-labelled anti-ERFE antibody 15.1 to biotinylated monoFC-muErfe; design: species or system murine; settings: competing antigen 250 nM to 0.39 nM, Ab 15.1 15 nM, 3 hours room temperature
Experimental: (a) Investigation of the ability of BMPs to disrupt binding of cryptate-labelled anti-ERFE antibody to biotinylated murine ERFE: FRET assay was used to determine the ability of BMPs to disrupt binding between ERFE and a neutralising anti-ERFE antibody (Ab 15.1). The assay setup comprised streptavidin XL665 (cisbio assays) at a constant concentration of 1:1000 to be 50 ng per well, biotinylated monoFC-muErfe (9 μM) i.e. a monomeric FC murine ERFE fusion, cryptate labelled anti-ERFE antibody (Ab 15.1) at 15 nM. Each reaction well contained a total volume of 20 μl comprising: 5 μl streptavidin XL665, 5 μl Biotinylated monoFC-muErfe, 5 μl cryptate labelled anti-ERFE antibody 15.1, 5 μl competing antigen as a titration from 250 nM to 0.39 nM, all antigens at each concentration were assayed in duplicate. Reactions were left for 3 hours at room temperature and then […] at 665 nm and […] was read on the Envision. […] The assay was also conducted using a non-neutralising anti-ERFE antibody as a control.

[2] = tested on: HAMP-nanoluciferase fusion in HepG2 hepatoma cells; experiment: hepcidin transcriptional fusion reporter assay (nano-luc / nano-luciferase assay); assay type: cell-based; settings: for hepcidin expression (hepcidin-nanoluciferase fusion expression): NanoLuc cells, serially diluted BMP, 24 h
Experimental: The was measured in-vitro using as follows: A hepcidin transcriptional fusion reporter assay (nano-luc or nano-luciferase assay) was developed to assess the effect of BMPs on hepcidin production in-vitro. A nanoluciferase reporter was inserted at the end of the coding sequence of the endogenous HAMP gene, in HepG2 hepatoma cells, creating a HAMP-nanoluciferase fusion. CRISPR-Cas9 was used to edit the cells with this knock-in reporter construct. A bovine Growth Hormone poly A was included after the nanoLuc to ensure proper mRNA processing. A Puromycin-TK expression cassette was also included 3′ of the nanoluc reporter to enrich for properly targeted clones. […] Approximately 20,000 cells (cells split with trypsin/EDTA) were suspended in 200 uL of complete media (DMEM+10% serum+Na pyruvate) and were distributed into each well of 96-well plates and incubated for 24 hours at 37 C. Media was then aspirated and the cells treated in 100 uL complete media for 24 h at 37 C in the presence of the selected BMP which was serial diluted (in duplicates), controls of fresh media alone were used for a baseline signal (in duplicate). Following the incubation 90 uL of supernatant was transferred to a white wall 96 well plate and equilibrated at RT, 90 uL of RT NanoLuc reagent was added/well (for 1 plate, 10 mL diluting reagent+200 uL NanoLuc substrate—from Nano-Glo Luciferase Assay System, Promega, ref cat #N1150) and mixed 2-3 min at room temperature. Plates were read on Envision with Lum700 program following the manufacturer's instructions.

[3] = tested on: SMAD1/5/8 phosphorylation in Huh7 cells; experiment: Western blot of SMAD1/5/8 phosphorylation in Huh7 cells; assay type: cell-based; settings: Huh7, BMP6 stimulation, 30 min
Experimental: (d) ERFE effects on BMP/SMAD signalling measured by SMAD 1/5/8 phosphorylation: To confirm the suppression of BMP/SMAD signalling, we analysed phosphorylation of SMAD1/5/8, required to transduce the signal leading to HAMP upregulation. Analysis was carried out by Western blot according to the following methodology: Cells were lysed at 4° C. using RIPA buffer (Thermo Scientific) containing protease/phosphatase inhibitor (Cell Signalling). Lysates were denatured at 95° C. and separated on a 10% SDS polyacrylamide gel (Bio-Rad), following the manufacturer's instruction. Protein sizes were estimated by using the Novex Sharp Pre-Stained Protein Ladder (life technologies). Protein was transferred to a nitrocellulose membrane, then blocked with milk/TBS for 1 h. Antibodies used were anti-P-SMAD 1/5 (S463s/465)/9(S465/467) (Cell signalling 13820S 1:500), anti-Smad1 (Cell Signalling 6944S 1:500), anti-β-actin-peroxidase (Sigma A3854 1:10 000), and Anti-rabbit IgG HRP conjugated (RnD systems HAP008 1:5000). […] In this case Huh7 cells were treated with mouse ERFE (10 μg/ml) or BMP6 and LDN, a small molecule inhibitor of BMPs, (100 nM), alone or in combination, for 30 min and pSMAD/SMAD ratios values were calculated by densitometry. Erythroferrone caused a decrease in SMAD phosphorylation relative to non-treated cells (FIG. 3D).

[4] = tested on: Huh7 cells; experiment: Gene expression microarray of Huh7 cells treated with ERFE; assay type: cell-based; settings: Huh7, ERFE 10 μg/ml, 24 h
Experimental: (b) Gene expression microarray: Microarray analysis of Huh7 cells treated with mouse or human erythroferrone was carried out to test the activity of erythroferrone on the BMP/SMAD signalling pathway. Generally cell treatments were carried out according to the following protocol: Huh7 and HepG2 were cultured in Dulbecco's Modified Eagle's Medium—High Glucose (Sigma), supplemented with 10% Fetal Bovine Serum (Sigma), 1% Penicillin-Streptomycin (Sigma) and 1% L-Glutamine (Sigma), unless otherwise indicated. Cells were plated 24 h before treatments in 24-well (gene expression analysis) or 12-well (protein analysis) cell culture plates. At the time of treatment, cells were washed with PBS and fresh media was added.
For the purposes of gene expression microarray analysis RNA was isolated from the Huh7 cells using RNeasy Plus kit (Qiagen), this was followed by RNA quantification and quality assessment using a 2100 Bioanalyzer (Agilent). RNA was converted into biotin labelled cRNA for hybridization and gene expression analysed using the Human HT12v4.0 Expression Beadchip (Illumina) and the Illuminas's iScan Scanner. Raw data was normalised using the lumi package (Bioconductor) and compared using LIMMA (Bioconductor). Statistical significance was set at p<0.05.

[5] = target: T1, BMP2 (UniProt P12643 283-396); experiment: SPR (Biacore)
T1 chain: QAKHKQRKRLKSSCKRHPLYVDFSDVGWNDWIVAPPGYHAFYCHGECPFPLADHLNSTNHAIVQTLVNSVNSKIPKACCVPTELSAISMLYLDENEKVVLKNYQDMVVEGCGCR

[6] = target: T2, BMP4 (UniProt P12644 293-408); experiment: SPR (Biacore)
T2 chain: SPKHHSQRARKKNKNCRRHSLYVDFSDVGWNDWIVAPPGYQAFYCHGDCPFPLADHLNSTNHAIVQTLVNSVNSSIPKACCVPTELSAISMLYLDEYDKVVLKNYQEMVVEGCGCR

[7] = target: T3, BMP6 (UniProt P22004 382-513); experiment: SPR (Biacore)
T3 chain: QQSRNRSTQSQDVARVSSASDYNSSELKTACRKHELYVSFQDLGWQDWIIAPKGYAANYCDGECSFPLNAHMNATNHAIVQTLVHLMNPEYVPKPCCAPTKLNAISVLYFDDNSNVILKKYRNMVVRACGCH

biotinylated monoFC-muErfe, sequence (Q6PGN1 25-340): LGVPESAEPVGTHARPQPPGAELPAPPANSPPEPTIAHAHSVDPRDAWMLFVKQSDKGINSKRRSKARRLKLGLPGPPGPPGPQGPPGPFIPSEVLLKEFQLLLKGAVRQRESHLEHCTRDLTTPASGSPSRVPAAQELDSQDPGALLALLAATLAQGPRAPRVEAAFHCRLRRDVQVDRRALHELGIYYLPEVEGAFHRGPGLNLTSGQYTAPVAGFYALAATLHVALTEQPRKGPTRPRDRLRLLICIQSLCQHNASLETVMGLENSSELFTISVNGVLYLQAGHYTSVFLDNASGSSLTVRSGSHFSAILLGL

BMP4: bone morphogenetic protein 4 (R&D systems)
competition with cryptate labelled anti-ERFE antibody for binding to biotinylated monoFC-muErfe [1]: did not compete effectively

B1: BMP6: bone morphogenetic protein 6 (R&D systems) (protein)
chain: QQSRNRSTQSQDVARVSSASDYNSSELKTACRKHELYVSFQDLGWQDWIIAPKGYAANYCDGECSFPLNAHMNATNHAIVQTLVHLMNPEYVPKPCCAPTKLNAISVLYFDDNSNVILKKYRNMVVRACGCH
hepcidin expression (hepcidin-nanoluciferase fusion expression) [2]: dose-dependent increase
SMAD phosphorylation [3]: increase
competition with cryptate labelled anti-ERFE antibody for binding to biotinylated monoFC-muErfe [1]: measurable competition

B2: human ERFE: recombinant human erythroferrone, SEQ ID NO: 1 (protein, listed as Homo sapiens)
chain: MAPARRPAGARLLLVYAGLLAAAAAGLGSPEPGAPSRSRARREPPPGNELPRGPGESRAGPAARPPEPTAERAHSVDPRDAWMLFVRQSDKGVNGKKRSRGKAKKLKFGLPGPPGPPGPQGPPGPIIPPEALLKEFQLLLKGAVRQRERAEPEPCTCGPAGPVAASLAPVSATAGEDDDDVVGDVLALLAAPLAPGPRAPRVEAAFLCRLRRDALVERRALHELGVYYLPDAEGAFRRGPGLNLTSGQYRAPVAGFYALAATLHVALGEPPRRGPPRPRDHLRLLICIQSRCQRNASLEAIMGLESSSELFTISVNGVLYLQMGQWTSVFLDNASGCSLTVRSGSHFSAVLLGV
target genes of the JAK/STAT3 pathway [4]: No changes
number of suppressed genes ([4]; 5 are BMP/SMAD targets ID1, ID2, ID3, SMAD6, HAMP): 12

B3: BMP5: bone morphogenetic protein 5 (R&D systems) (protein)
chain: AANKRKNQNRNKSSSHQDSSRMSSVGDYNTSEQKQACKKHELYVSFRDLGWQDWIIAPEGYAAFYCDGECSFPLNAHMNATNHAIVQTLVHLMFPDHVPKPCCAPTKLNAISVLYFDDSSNVILKKYRNMVVRSCGCH
competition with cryptate labelled anti-ERFE antibody for binding to biotinylated monoFC-muErfe [1]: measurable competition

B4: BMP9: bone morphogenetic protein 9 (R&D systems) (protein)
chain: SAGAGSHCQKTSLRVNFEDIGWDSWIIAPKEYEAYECKGGCFFPLADDVTPTKHAIVQTLVHLKFPTKVGKACCVPTKLSPISVLYKDDMGVPTLKYHYEGMSVAECGCR
hepcidin expression (hepcidin-nanoluciferase fusion expression) [2]: dose-dependent increase

B5: ERFE A4-biotin (ligand)
chain: AAGLGSPEPGAPSRSAAAAEPPPGNELPRGPGESRAGPAARPPEPTAERAHSVDPRDAWMLFVRQSDKGVNGKKRSRGKAKKLKFGLPGPPGPPGPQGPPGPIIPPEALLKEFQLLLKGAVRQRERAEPEPCTCGPAGPVAASLAPVSATAGEDDDDVVGDVLALLAAPLAPGPRAPRVEAAFLCRLRRDALVERRALHELGVYYLPDAEGAFRRGPGLNLTSGQYRAPVAGFYALAATLHVALGEPPRRGPPRPRDHLRLLICIQSRCQRNASLEAIMGLESSSELFTISVNGVLYLQMGQWTSVFLDNASGCSLTVRSGSHFSAVLLGV
modifications: biotin (site not stated)
Kd [5]: 16.1 nM
Kd [6]: 41.1 nM
Kd [7]: 1.17 nM

B6: monoFC-huErfe: monomeric Fc fusion of human ERFE; FIG. 3L legend names the A4 mutant (protein)
chain: AAGLGSPEPGAPSRSRARREPPPGNELPRGPGESRAGPAARPPEPTAERAHSVDPRDAWMLFVRQSDKGVNGKKRSRGKAKKLKFGLPGPPGPPGPQGPPGPIIPPEALLKEFQLLLKGAVRQRERAEPEPCTCGPAGPVAASLAPVSATAGEDDDDVVGDVLALLAAPLAPGPRAPRVEAAFLCRLRRDALVERRALHELGVYYLPDAEGAFRRGPGLNLTSGQYRAPVAGFYALAATLHVALGEPPRRGPPRPRDHLRLLICIQSRCQRNASLEAIMGLESSSELFTISVNGVLYLQMGQWTSVFLDNASGCSLTVRSGSHFSAVLLGV
modifications: left off: a dimerising Fc or GST
suppression of hepcidin production (NanoLuc) ([2]; two fold dilutions from 600 nM, 24 hours): dose dependent

B7: BMP7: bone morphogenetic protein 7 (R&D systems) (protein)
chain: STGSKQRSQNRSKTPKNQEALRMANVAENSSSDQRQACKKHELYVSFRDLGWQDWIIAPEGYAAYYCEGECAFPLNSYMNATNHAIVQTLVHFINPETVPKPCCAPTQLNAISVLYFDDSSNVILKKYRNMVVRACGCH
competition with cryptate labelled anti-ERFE antibody for binding to biotinylated monoFC-muErfe [1]: measurable competition
